Tests used:
[1] = biological target: T1, LN3 (long negative designed polypeptide); test: QCM, electrostatic layer-by-layer adsorption of oppositely charged peptides, pH 7.4, 1 mM DTT (pairs named in paragraph 153)
T1 construct: Synthetic 48-residue polyanion; also called negative 48-residue peptide
T1 peptide: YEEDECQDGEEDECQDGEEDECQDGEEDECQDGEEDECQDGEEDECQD
Method: (§1) The polypeptide molecular weight was verified by electrospray mass spectrometry. Peptide purity was greater than 70%. The polypeptide buffer was 10 mM sodium phosphate or 10 mM Tris-HCl, 1 mM DTT, 0.1 mM sodium azide, pH 7.4. All chemicals other than polypeptides were purchased from Sigma-Aldrich (USA).
(§2) Resonators were rinsed for 1 min. in pure water between subsequent adsorption cycles (removing perhaps 10-15% of weakly adsorbed material) and dried in a stream of gaseous N₂. Then the mass of the deposited peptide was measured indirectly by QCM. The mass measurement includes some water, despite drying, and low mass ions like K⁺, Na⁺, and Cl⁻. Partial interpenetration of neighboring layers of peptide is probable (see Decher, G. (1997) Science 227:1232; Schmitt et al. (1993) Macromolecules 26:7058; and Korneev et al. (1995) Physica B 214:954); this could be important for the efficiency of disulfide “locking.”
(§3) After adsorption of the polypeptide and rinsing and drying the QCM resonator, the resonant frequency of the resonator was measured. This enabled calculation of the frequency shift on adsorption and change in adsorbed mass. A decrease in frequency indicates an increase in adsorbed mass. […] Each of these combinations involved one negative polypeptide and one positive polypeptide, as required by ELBL.

[2] = biological target: T2, SN1 (short negative designed polypeptide); test: as above
T2 construct: Synthetic 32-residue polyanion built from a 7-residue motif of human complement C3, with Gly linkers and an N-terminal Tyr
T2 peptide: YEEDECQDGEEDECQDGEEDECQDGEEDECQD
Method: as §1, §2, §3

[3] = biological target: T3, de novo-designed cysteine-containing negative polypeptide (SEQ ID NO: 6); test: QCM, layer-by-layer assembly, 10 mM Tris-HCl, 10 mM DTT, pH 7.4, 2 mg/mL peptide
T3 peptide: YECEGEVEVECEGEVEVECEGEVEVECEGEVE
Method: All assembly experiments using QCM were conducted in the same conditions, except that the samples to undergo oxidation were dried using air instead of nitrogen gas. The assembly conditions were 10 mM Tris-HCl, 10 mM DTT, pH 7.4. The nominal peptide concentration was 2 mg/mL. The number of layers formed was 14.

YRRRRSVQGRRRRSVQGRRRRSVQGRRRRSVQGRRRRSVQGRRRRSVQ (Synthetic 48-residue polycation) [LP4 (long positive designed polypeptide)]
binding result [1]: binds

B1: SP2 (short positive designed polypeptide) (peptide)
peptide: YRRRRSVQGRRRRSVQGRRRRSVQGRRRRSVQ
notes: Synthetic 32-residue polycation built from a 7-residue motif of human lactotransferrin, with Gly linkers and an N-terminal Tyr
binding result [1]: binds
binding result [2]: binds

YKCKGKVKVKCKGKVKVKCKGKVKVKCKGKVK [de novo-designed cysteine-containing positive polypeptide (SEQ ID NO: 5)]
binding result [3]: binds

From patent US20090233074A1 (ARTIFICIAL CELL TECHNOLOGIES, published 2009)
